Source: the supplement of paper PMC7877785
± gives the uncertainty stated by the source.

Assay: self-splicing fitness, log relative to wild type (ln ratio); higher = more splicing; Tetrahymena group I intron in knt gene, E. coli kanamycin selection, DiMSum; sequences stand for … in CUCUCU…GGAGGGAAAAGUUAUCAGGCAUGCACCUGGUAGCUAGUCUUUAAACCAAUAGAUUGCAUCGGUUUAAAAGGCAAGACCGUCAAAUUGCGGGAAAGGGGUCAACAGCCGUUCAGUACCAAGUCUCAGGGGAAACUUUGAGAUGGCCUUGCAAAGGGUAUGGUAAUAAGCUGACGGACAUGGUCCUAACCACGCAGCCAAGUCCUAAGUCAACAGAUCUUCUGUUGAUAUGGAUGCAGUUCACAGACUAAAUGUCGGUCGGGGAAGAUGUAUUCUUCUCAUAAGAUAUAGUCGGACCUCUCCUUAAUGGGAGCUAGCGGAUGAAGUGAUGCAACACUGGAGCCGCUGGGAACUAAUUUGUAUGCGAAAGUAUAUUGAUUAGUUUUGGAGUACUCGUGGUCG
Outline: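 Library with all eight P1ex-region intron nucleotides randomised, intron inside the knt kanamycin-resistance gene on pET-22b(+), in E. coli BL21(DE3). Cells grew overnight at 37°C or 30°C on LB agar with or without 25 μg/mL kanamycin (plus 100 μg/mL carbenicillin, 50 μM IPTG, 0.2% rhamnose), in six replicate transformations. Pooled colonies were amplicon-sequenced on Illumina HiSeq 2500. DiMSum fitness is the error-weighted combination of wild-type-normalised replicate fold changes, kanamycin versus none.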

Sequence	self-splicing fitness (ln) (30 °C)	self-splicing fitness (ln) (37 °C)
GGUUAGCAAUAUUACGAUCG	-0.314 ± 0.14	-0.207 ± 0.27
GGUUAGCAAUAUUACGAUGU	-0.65 ± 0.14	-0.087 ± 0.15
GGUUAGCAAUAUUACGCACA	-0.431 ± 0.1	-0.339 ± 0.14
GGUUAGCAAUAUUACGCAGA	-1.17 ± 0.24	-2.02 ± 0.26
GGUUAGCAAUAUUACGCGAC	-2.02 ± 0.34	-1.33 ± 0.27
GGUUAGCAAUAUUACGCUCA	-1.34 ± 0.2	-0.632 ± 0.19
GGUUAGCAAUAUUACGCUUU	-2.01 ± 0.13	0.0831 ± 0.14
GGUUAGCAAUAUUACGGCCC	-1.23 ± 0.43	–
GGUUAGCAAUAUUACGGGUA	-1.11 ± 0.22	-1.39 ± 0.19
GGUUAGCAAUAUUACGGGUC	-2.03 ± 0.24	-0.805 ± 0.18
GGUUAGCAAUAUUACGUAGC	-2.18 ± 0.16	-1.97 ± 0.17
GGUUAGCAAUAUUACGUAUU	-1.14 ± 0.11	-0.191 ± 0.1
GGUUAGCAAUAUUACGUCAC	–	-1.82 ± 0.23
GGUUAGCAAUAUUACGUCCC	–	-2.36 ± 0.34
GGUUAGCAAUAUUACGUGCC	-2 ± 0.46	–
GGUUAGCAAUAUUACGUGGU	-2.69 ± 0.18	-0.78 ± 0.17
GGUUAGCAAUAUUACGUUAA	-2.32 ± 0.19	-0.699 ± 0.16
GGUUAGCAAUAUUACGUUAU	-1.61 ± 0.1	-0.954 ± 0.1
GGUUAGCAAUAUUACGUUCG	-0.206 ± 0.089	0.151 ± 0.11
GGUUAGCAAUAUUACGUUCU	-0.833 ± 0.042	-0.236 ± 0.052

Sequence	self-splicing fitness (ln) (30 °C)	self-splicing fitness (ln) (37 °C)
GUAAAGCAAUAUUACGAAAU	-0.837 ± 0.078	-0.128 ± 0.1
GUAAAGCAAUAUUACGAACC	-2.39 ± 0.29	-2.8 ± 0.36
GUAAAGCAAUAUUACGAAUG	-2.8 ± 0.14	-1.23 ± 0.2
GUAAAGCAAUAUUACGACAG	-2.12 ± 0.17	-2.22 ± 0.25
GUAAAGCAAUAUUACGACGC	0.577 ± 0.16	0.0941 ± 0.19
GUAAAGCAAUAUUACGAGGG	-3.57 ± 0.24	–
GUAAAGCAAUAUUACGAUAU	-0.349 ± 0.087	-0.0732 ± 0.11
GUAAAGCAAUAUUACGAUCA	-0.396 ± 0.11	-0.197 ± 0.11
GUAAAGCAAUAUUACGCCAG	-1.89 ± 0.083	-1.21 ± 0.14
GUAAAGCAAUAUUACGCCGA	-0.859 ± 0.11	-0.839 ± 0.14
GUAAAGCAAUAUUACGCCUG	-0.223 ± 0.15	0.555 ± 0.17
GUAAAGCAAUAUUACGCGAC	-0.509 ± 0.26	1.71 ± 0.45
GUAAAGCAAUAUUACGCUGG	-0.164 ± 0.086	-0.981 ± 0.14
GUAAAGCAAUAUUACGGAUG	-2.97 ± 0.24	-0.613 ± 0.19
GUAAAGCAAUAUUACGGCGU	-0.369 ± 0.069	0.409 ± 0.11
GUAAAGCAAUAUUACGGGAG	-3.68 ± 0.25	-1.67 ± 0.14
GUAAAGCAAUAUUACGGGUU	-1.72 ± 0.13	-1.86 ± 0.18
GUAAAGCAAUAUUACGGUCA	-0.163 ± 0.072	0.362 ± 0.097
GUAAAGCAAUAUUACGUGAC	-2.09 ± 0.076	-0.885 ± 0.078
